Measurements published in US20230406950A1 (LYVGEN BIOPHARMA, published 2023).
Each block holds one binder with its values, some of them ahead of it.

How the values were obtained:
[1] = biological target: T1, human CD137 expressed on cells (human, UniProt Q07011 24-255); assay: flow cytometry (FACS), MFI, CHO cells expressing human CD137
T1 construct: whole, on cells; also called 4-1BB; TNFRSF9
Method: (§1) Exemplary anti-PD-1/CD137 bi-specific antibodies were analyzed by FACS for their binding properties to human PD-1 and/or human CD137 expressed on CHO cells. Briefly, cultured cells were harvested, counted and cell viability was evaluated using the Trypan Blue exclusion method. Viable cells were then adjusted to 2×10⁶ cells per mL in PBS containing 2% BSA. 100 μL of this cell suspension were further aliquoted per well into a V-bottom 96-well plate. […] After incubation for 2 hours at 4° C., cells were centrifuged (3 min, 1000× g), washed with 250 μL/well BSA-containing FACS Stain Buffer, resuspended and incubated for an additional 1 hour at 4° C. with 100 μL/well fluorochrome-conjugated anti-IgG antibody for detection of the bisepecific antibody. Cells were then washed with 250 μL/well BSA-containing FACS Stain Buffer, resuspended in 100 μL/well FACS Stain Buffer, acquired and analyzed using a FACS machine. Binding of the bispecific antibodies to human PD-1 or human CD137 expressing CHO cells were evaluated and the mean fluorescence intensity is plotted in histograms or dot plots.

[2] = biological target: T2, human CD137 ECD protein (His tag) (human, UniProt Q07011 24-186); assay: bridging ELISA: human CD137 ECD (His tag) coated, antibody titrated, then human PD-1 ECD (mouse IgG2a Fc tag), HRP anti-mouse IgG2a Fc; A450-A620
T2 construct: extracellular domain; also called recombinant human CD137; not shown: His tag
Method: Exemplary anti-PD-1/CD137 bi-specific antibodies were analyzed by ELISA for their simultaneous binding to recombinant human PD-1 and human CD137. Briefly, human CD137 ECD protein (His tag) was diluted and coated onto an ELISA plate with a volume of 100 μL/well by incubation at 4° C. overnight. The next day, the plate was blocked with PBST-BSA buffer, then serially diluted samples of anti-PD-1/CD137 bi-specific antibodies were pipetted into appropriate wells at 50 μL/well, and the plate was incubated for 1 hour followed by washing. The extracellular domain (ECD) of human PD-1 protein (mouse IgG2a Fc tag) was added into the plate at 50 μL/well. After 1-hour incubation at room temperature, HRP-conjugated anti-Mouse IgG, Fc G2a specific antibody was added into the plate at 100 μL/well. The plate was incubated for 1 hour at room temperature followed by washing. TMB substrate solution was added at 100 μL/well and the color development was stopped by adding 100 uL/well Stop Solution (2N H₂SO₄). Absorbance at 450 nm and 620 nm was read by Tecan F200 Pro plate reader. GraphPad 7.0, “[Agonist] vs. response—Variable slope (four parameters)” was used to plot the binding data and calculate binding EC50 values.

[3] = biological target: T3, human PD-1 expressed on cells (human, UniProt Q15116 25-288); assay: flow cytometry (FACS), MFI, CHO cells expressing human PD-1
T3 construct: whole, on cells; also called human PD-1 over-expressed on the CHO cells; Jurkat/NFkB-Luci/PD-1 cells
Method: as §1

[4] = biological target: T4, human CD40 expressed on CHO cells (human, UniProt P25942 21-277); assay: FACS on CHO cells expressing human CD40 (MFI)
T4 construct: whole, on cells
Method: as §1, with “Anti-CD40/CD137” for “Exemplary anti-PD-1/CD137”, “CD40” for “PD-1”, “1000×g),” for “1000× g),”

[5] = biological target: T1, human CD137 expressed on cells; assay: FACS on CHO cells expressing human CD137 (MFI)
Method: as §1, with “Anti-CD40/CD137” for “Exemplary anti-PD-1/CD137”, “CD40” for “PD-1”, “1000×g),” for “1000× g),”

T1 sequence (Q07011 24-255): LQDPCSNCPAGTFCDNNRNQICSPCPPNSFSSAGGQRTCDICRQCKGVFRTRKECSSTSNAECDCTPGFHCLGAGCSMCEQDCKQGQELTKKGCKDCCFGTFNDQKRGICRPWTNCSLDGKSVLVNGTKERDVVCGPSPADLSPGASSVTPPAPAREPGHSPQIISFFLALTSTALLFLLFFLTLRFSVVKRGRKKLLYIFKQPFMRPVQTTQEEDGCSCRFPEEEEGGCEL
T4 sequence (P25942 21-277): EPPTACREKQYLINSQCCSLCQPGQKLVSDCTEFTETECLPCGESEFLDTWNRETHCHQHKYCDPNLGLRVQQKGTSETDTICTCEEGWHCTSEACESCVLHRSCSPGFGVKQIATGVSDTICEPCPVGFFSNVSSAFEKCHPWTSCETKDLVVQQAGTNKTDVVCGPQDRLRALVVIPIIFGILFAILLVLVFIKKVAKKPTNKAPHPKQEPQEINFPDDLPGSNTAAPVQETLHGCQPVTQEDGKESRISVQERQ
T3 sequence (Q15116 25-288): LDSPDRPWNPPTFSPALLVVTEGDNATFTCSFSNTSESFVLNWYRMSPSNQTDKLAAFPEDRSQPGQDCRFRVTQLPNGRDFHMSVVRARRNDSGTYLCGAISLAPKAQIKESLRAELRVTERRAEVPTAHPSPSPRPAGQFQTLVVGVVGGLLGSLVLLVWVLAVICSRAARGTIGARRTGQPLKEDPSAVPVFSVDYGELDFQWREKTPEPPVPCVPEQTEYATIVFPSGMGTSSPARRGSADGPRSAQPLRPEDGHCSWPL

binding result [4]: binds
EC50 (read off the curve) [5]: ~0.07 µg/mL
B2: Ly742 (bispecific antibody, human IgG1, kappa)
heavy: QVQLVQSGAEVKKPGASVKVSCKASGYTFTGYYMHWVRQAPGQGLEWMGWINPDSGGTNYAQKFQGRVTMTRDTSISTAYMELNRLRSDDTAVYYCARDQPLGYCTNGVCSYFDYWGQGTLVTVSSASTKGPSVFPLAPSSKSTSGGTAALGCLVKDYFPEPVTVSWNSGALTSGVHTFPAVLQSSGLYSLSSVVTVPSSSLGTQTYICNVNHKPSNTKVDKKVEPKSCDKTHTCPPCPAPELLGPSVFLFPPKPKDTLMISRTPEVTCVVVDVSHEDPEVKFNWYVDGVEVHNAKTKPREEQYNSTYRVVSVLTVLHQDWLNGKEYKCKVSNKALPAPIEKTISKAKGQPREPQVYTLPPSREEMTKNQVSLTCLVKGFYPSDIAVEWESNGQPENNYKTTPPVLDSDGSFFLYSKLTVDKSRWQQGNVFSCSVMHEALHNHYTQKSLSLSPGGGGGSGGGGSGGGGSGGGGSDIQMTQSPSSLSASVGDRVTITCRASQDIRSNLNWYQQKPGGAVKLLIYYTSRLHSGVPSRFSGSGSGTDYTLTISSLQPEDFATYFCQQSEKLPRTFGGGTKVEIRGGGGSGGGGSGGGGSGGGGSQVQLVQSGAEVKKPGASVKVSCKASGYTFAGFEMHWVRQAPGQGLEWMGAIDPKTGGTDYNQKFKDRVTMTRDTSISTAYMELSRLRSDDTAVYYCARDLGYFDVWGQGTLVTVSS
light: DIQMTQSPSSVSASVGDRVTITCRASQGIYSWLAWYQQKPGKAPNLLIYTASTLQSGVPSRFSGSGSGTDFTLTISSLQPEDFATYYCQQANIFPLTFGGGTKVEIKRTVAAPSVFIFPPSDEQLKSGTASVVCLLNNFYPREAKVQWKVDNALQSGNSQESVTEQDSKDSTYSLSSTLTLSKADYEKHKVYACEVTHQGLSSPVTKSFNRGEC
notes: Anti-CD40/CD137: Ly253-derived heavy chain fused to Ly1630 scFv (VL-VH); Ly253 light chain

binding result [4]: binds
EC50 (read off the curve) [5]: ~0.04 µg/mL
B5: Ly740 (bispecific antibody, human IgG1, kappa)
heavy: QVQLVQSGAEVKKPGASVKVSCKASGYTFAGFEMHWVRQAPGQGLEWMGAIDPKTGGTDYNQKFKDRVTMTRDTSISTAYMELSRLRSDDTAVYYCARDLGYFDVWGQGTLVTVSSASTKGPSVFPLAPSSKSTSGGTAALGCLVKDYFPEPVTVSWNSGALTSGVHTFPAVLQSSGLYSLSSVVTVPSSSLGTQTYICNVNHKPSNTKVDKKVEPKSCDKTHTCPPCPAPELLGPSVFLFPPKPKDTLMISRTPEVTCVVVDVSHEDPEVKFNWYVDGVEVHNAKTKPREEQYNSTYRVVSVLTVLHQDWLNGKEYKCKVSNKALPAPIEKTISKAKGQPREPQVYTLPPSREEMTKNQVSLTCLVKGFYPSDIAVEWESNGQPENNYKTTPPVLDSDGSFFLYSKLTVDKSRWQQGNVFSCSVMHEALHNHYTQKSLSLSPGK
light: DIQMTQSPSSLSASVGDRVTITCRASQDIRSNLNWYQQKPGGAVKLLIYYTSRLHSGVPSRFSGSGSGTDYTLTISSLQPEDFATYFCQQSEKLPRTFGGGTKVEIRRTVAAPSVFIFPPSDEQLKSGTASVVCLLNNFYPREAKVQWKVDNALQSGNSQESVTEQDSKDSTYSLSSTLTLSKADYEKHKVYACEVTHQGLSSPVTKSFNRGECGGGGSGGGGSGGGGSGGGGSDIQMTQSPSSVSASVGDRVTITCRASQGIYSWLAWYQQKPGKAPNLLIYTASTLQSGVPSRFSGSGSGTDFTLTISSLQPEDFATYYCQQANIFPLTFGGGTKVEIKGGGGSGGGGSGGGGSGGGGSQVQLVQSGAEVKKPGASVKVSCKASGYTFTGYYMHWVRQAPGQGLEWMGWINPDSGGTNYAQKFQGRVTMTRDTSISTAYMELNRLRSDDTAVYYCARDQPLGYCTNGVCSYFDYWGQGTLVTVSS
notes: Anti-CD40/CD137: Ly1630 heavy chain; Ly1630 light chain fused to Ly253 scFv (VL-VH)

binding result [4]: binds
EC50 (read off the curve) [5]: ~0.04 µg/mL
B6: Ly741 (bispecific antibody, human IgG1, kappa)
heavy: QVQLVQSGAEVKKPGASVKVSCKASGYTFAGFEMHWVRQAPGQGLEWMGAIDPKTGGTDYNQKFKDRVTMTRDTSISTAYMELSRLRSDDTAVYYCARDLGYFDVWGQGTLVTVSSASTKGPSVFPLAPSSKSTSGGTAALGCLVKDYFPEPVTVSWNSGALTSGVHTFPAVLQSSGLYSLSSVVTVPSSSLGTQTYICNVNHKPSNTKVDKKVEPKSCDKTHTCPPCPAPELLGPSVFLFPPKPKDTLMISRTPEVTCVVVDVSHEDPEVKFNWYVDGVEVHNAKTKPREEQYNSTYRVVSVLTVLHQDWLNGKEYKCKVSNKALPAPIEKTISKAKGQPREPQVYTLPPSREEMTKNQVSLTCLVKGFYPSDIAVEWESNGQPENNYKTTPPVLDSDGSFFLYSKLTVDKSRWQQGNVFSCSVMHEALHNHYTQKSLSLSPGK
light: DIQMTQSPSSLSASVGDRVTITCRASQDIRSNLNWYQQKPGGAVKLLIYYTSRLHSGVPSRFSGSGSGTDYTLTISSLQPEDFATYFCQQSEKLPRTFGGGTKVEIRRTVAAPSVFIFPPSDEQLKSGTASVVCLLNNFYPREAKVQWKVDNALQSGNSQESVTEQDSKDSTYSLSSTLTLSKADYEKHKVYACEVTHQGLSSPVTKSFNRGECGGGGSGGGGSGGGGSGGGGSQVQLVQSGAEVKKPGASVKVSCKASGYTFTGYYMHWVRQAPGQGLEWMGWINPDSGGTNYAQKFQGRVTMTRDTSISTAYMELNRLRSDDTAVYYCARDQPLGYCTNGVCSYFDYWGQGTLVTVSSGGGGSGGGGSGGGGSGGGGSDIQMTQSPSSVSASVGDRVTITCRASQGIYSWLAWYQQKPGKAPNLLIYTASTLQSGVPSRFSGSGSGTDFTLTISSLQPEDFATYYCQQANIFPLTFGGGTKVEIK
notes: Anti-CD40/CD137: Ly1630 heavy chain; Ly1630 light chain fused to Ly253 scFv (VH-VL)

Continued, binder first:

B1: Ly457 (bispecific antibody, human IgG1, kappa)
heavy: QVTLKESGPALVKPTQTLTLTCTFSGFSLSTSGTCVSWIRQPPGKALEWLATICWEDSKGYNPSLKSRLTISKDTSKNQAVLTMTNMDPVDTATYYCARREDSGYFWFPYWGQGTLVTVSSASTKGPSVFPLAPSSKSTSGGTAALGCLVKDYFPEPVTVSWNSGALTSGVHTFPAVLQSSGLYSLSSVVTVPSSSLGTQTYICNVNHKPSNTKVDKKVEPKSCDKTHTCPPCPAPELLGPSVFLFPPKPKDTLMISRTPEVTCVVVDVSHEDPEVKFNWYVDGVEVHNAKTKPREEQYNSTYRVVSVLTVLHQDWLNGKEYKCKVSNKALPAPIEKTISKAKGQPREPQVYTLPPSREEMTKNQVSLTCLVKGFYPSDIAVEWESNGQPENNYKTTPPVLDSDGSFFLYSKLTVDKSRWQQGNVFSCSVMHEALHNHYTQKSLSLSPGGGGGSGGGGSGGGGSGGGGSQVQLVQSGAEVKKPGASVKVSCKASGYTFAGFEMHWVRQAPGQGLEWMGAIDPKTGGTDYNQKFKDRVTMTRDTSISTAYMELSRLRSDDTAVYYCARDLGYFDVWGQGTLVTVSSGGGGSGGGGSGGGGSGGGGSDIQMTQSPSSLSASVGDRVTITCRASQDIRSNLNWYQQKPGGAVKLLIYYTSRLHSGVPSRFSGSGSGTDYTLTISSLQPEDFATYFCQQSEKLPRTFGGGTKVEIR
light: NIQMTQSPSSLSASVGDRVTITCKAGQNVNNYLAWYQQKPGKAPKVLIFNANSLQTGVPSRFSGSGSGTDFTLTISSLQPEDFATYYCQQYNSWPTFGGGTKVEIKRTVAAPSVFIFPPSDEQLKSGTASVVCLLNNFYPREAKVQWKVDNALQSGNSQESVTEQDSKDSTYSLSSTLTLSKADYEKHKVYACEVTHQGLSSPVTKSFNRGEC
notes: Anti-PD-1/CD137: Ly516 heavy chain fused to Ly1630 scFv (VH-VL); Ly516 light chain
EC50 (read off the curve) [1]: ~0.2 µg/mL
EC50 (read off the curve) [2]: ~20 ng/mL
EC50 (read off the curve) [3]: ~0.2 µg/mL

B3: Ly458 (bispecific antibody, human IgG1, kappa)
heavy: QVTLKESGPALVKPTQTLTLTCTFSGFSLSTSGTCVSWIRQPPGKALEWLATICWEDSKGYNPSLKSRLTISKDTSKNQAVLTMTNMDPVDTATYYCARREDSGYFWFPYWGQGTLVTVSSASTKGPSVFPLAPSSKSTSGGTAALGCLVKDYFPEPVTVSWNSGALTSGVHTFPAVLQSSGLYSLSSVVTVPSSSLGTQTYICNVNHKPSNTKVDKKVEPKSCDKTHTCPPCPAPELLGPSVFLFPPKPKDTLMISRTPEVTCVVVDVSHEDPEVKFNWYVDGVEVHNAKTKPREEQYNSTYRVVSVLTVLHQDWLNGKEYKCKVSNKALPAPIEKTISKAKGQPREPQVYTLPPSREEMTKNQVSLTCLVKGFYPSDIAVEWESNGQPENNYKTTPPVLDSDGSFFLYSKLTVDKSRWQQGNVFSCSVMHEALHNHYTQKSLSLSPGK
light: NIQMTQSPSSLSASVGDRVTITCKAGQNVNNYLAWYQQKPGKAPKVLIFNANSLQTGVPSRFSGSGSGTDFTLTISSLQPEDFATYYCQQYNSWPTFGGGTKVEIKRTVAAPSVFIFPPSDEQLKSGTASVVCLLNNFYPREAKVQWKVDNALQSGNSQESVTEQDSKDSTYSLSSTLTLSKADYEKHKVYACEVTHQGLSSPVTKSFNRGECGGGGSGGGGSGGGGSGGGGSDIQMTQSPSSLSASVGDRVTITCRASQDIRSNLNWYQQKPGGAVKLLIYYTSRLHSGVPSRFSGSGSGTDYTLTISSLQPEDFATYFCQQSEKLPRTFGGGTKVEIRGGGGSGGGGSGGGGSGGGGSQVQLVQSGAEVKKPGASVKVSCKASGYTFAGFEMHWVRQAPGQGLEWMGAIDPKTGGTDYNQKFKDRVTMTRDTSISTAYMELSRLRSDDTAVYYCARDLGYFDVWGQGTLVTVSS
notes: Anti-PD-1/CD137: Ly516 heavy chain; Ly516 light chain fused to Ly1630 scFv (VL-VH)
EC50 (read off the curve) [1]: ~0.2 µg/mL
EC50 (read off the curve) [2]: ~20 ng/mL
EC50 (read off the curve) [3]: ~0.2 µg/mL

B4: Ly459 (bispecific antibody, human IgG1, kappa)
heavy: QVTLKESGPALVKPTQTLTLTCTFSGFSLSTSGTCVSWIRQPPGKALEWLATICWEDSKGYNPSLKSRLTISKDTSKNQAVLTMTNMDPVDTATYYCARREDSGYFWFPYWGQGTLVTVSSASTKGPSVFPLAPSSKSTSGGTAALGCLVKDYFPEPVTVSWNSGALTSGVHTFPAVLQSSGLYSLSSVVTVPSSSLGTQTYICNVNHKPSNTKVDKKVEPKSCDKTHTCPPCPAPELLGPSVFLFPPKPKDTLMISRTPEVTCVVVDVSHEDPEVKFNWYVDGVEVHNAKTKPREEQYNSTYRVVSVLTVLHQDWLNGKEYKCKVSNKALPAPIEKTISKAKGQPREPQVYTLPPSREEMTKNQVSLTCLVKGFYPSDIAVEWESNGQPENNYKTTPPVLDSDGSFFLYSKLTVDKSRWQQGNVFSCSVMHEALHNHYTQKSLSLSPGK
light: NIQMTQSPSSLSASVGDRVTITCKAGQNVNNYLAWYQQKPGKAPKVLIFNANSLQTGVPSRFSGSGSGTDFTLTISSLQPEDFATYYCQQYNSWPTFGGGTKVEIKRTVAAPSVFIFPPSDEQLKSGTASVVCLLNNFYPREAKVQWKVDNALQSGNSQESVTEQDSKDSTYSLSSTLTLSKADYEKHKVYACEVTHQGLSSPVTKSFNRGECGGGGSGGGGSGGGGSGGGGSQVQLVQSGAEVKKPGASVKVSCKASGYTFAGFEMHWVRQAPGQGLEWMGAIDPKTGGTDYNQKFKDRVTMTRDTSISTAYMELSRLRSDDTAVYYCARDLGYFDVWGQGTLVTVSSGGGGSGGGGSGGGGSGGGGSDIQMTQSPSSLSASVGDRVTITCRASQDIRSNLNWYQQKPGGAVKLLIYYTSRLHSGVPSRFSGSGSGTDYTLTISSLQPEDFATYFCQQSEKLPRTFGGGTKVEIR
notes: Anti-PD-1/CD137: Ly516 heavy chain; Ly516 light chain fused to Ly1630 scFv (VH-VL)
EC50 (read off the curve) [1]: ~0.2 µg/mL
EC50 (read off the curve) [2]: ~20 ng/mL
EC50 (read off the curve) [3]: ~0.2 µg/mL
